B1: CPEB3 Ribozyme (parent)
chain: GGGGGCCACAGCAGAAGCGUUCACGUCGCGGCCCCUGUCAGAUUCUGGUGAAUCUGCGAAUUCUGCUGU

The variants in the data set derive from B1. Briefly: self-cleavage, relative activity (ratio to wild type); higher = more cleavage; co-transcriptional.
For the variant GGGGGCCACAGCAGAAGCGUUCACGUCGCGGCCCCUGUCAGAUUCUGGUGAAUCUGCGCAUACUGCUGU, the self-cleavage was determined as 0.406. Next, GGGGGCCACAGCAGAAGCGUUCACGUCGCGGCCCCUGUCAGAUUCUGGUGAAUCUGCGCAUUCUGUUGU: 0.727; GGGGGCCACAGCAGAAGCGUUCACGUCGCGGCCCCUGUCAGAUUCUGGUGAAUCUGCGGAUUCUGUUGU: 0.979; GGGGGCCACAGCAGAAGCGUUCACGUCGCGGCCCCUGUCAGAUUCUGGUGAAUCUGCGAAAUCUGCUAU: 1.05.

As to GGGGGCCACAGCAGAAGCGUUCACGUCGCGGCCCCUGUCAGAUUCUGGUGAAUCUGCGUAUUCUGCGGU, the self-cleavage was determined as 0.79. The value for GGGGGCCACAGCAGAAGCGUUCACGUCGCGGCCCCUGUCAGAUUCUGGUGAAUCUGCGAUUUCUGCUGA was 0.536; that for GGGGGCCACAGCAGAAGCGUUCACGUCGCGGCCCCUGUCAGAUUCUGGUGAAUCUGCGCAUUCUGCUGU was 0.788. Consider GGGGGCCACAGCAGAAGCGUUCACGUCGCGGCCCCUGUCAGAUUCUGGUGAAUCUGCGGAUUCUGCUGU, for which the self-cleavage turned out to be 0.997. As for GGGGGCCACAGCAGAAGCGUUCACGUCGCGGCCCCUGUCAGAUUCUGGUGAAUCUGCGUAUUCUGCUGU, the self-cleavage was determined as 0.854. GGGGGCCACAGCAGAAGCGUUCACGUCGCGGCCCCUGUCAGAUUCUGGUGAAUCUGCGCAGUCUGCUGU: the self-cleavage came out at 0.359. Next, GGGGGCCACAGCAGAAGCGUUCACGUCGCGGCCCCUGUCAGAUUCUGGUGAAUCUGCGCAAUCUGCUGU: 0.483; GGGGGCCACAGCAGAAGCGUUCACGUCGCGGCCCCUGUCAGAUUCUGGUGAAUCUGCGACUUCUGCUAU: 0.454; GGGGGCCACAGCAGAAGCGUUCACGUCGCGGCCCCUGUCAGAUUCUGGUGAAUCUGCGGAUUCUGCUCU: 1.02. The value for GGGGGCCACAGCAGAAGCGUUCACGUCGCGGCCCCUGUCAGAUUCUGGUGAAUCUGCGAUUUCUGAUGU was 0.403. With GGGGGCCACAGCAGAAGCGUUCACGUCGCGGCCCCUGUCAGAUUCUGGUGAAUCUGCGAUUUCUGGUGU, the self-cleavage amounted to 0.405. The value for GGGGGCCACAGCAGAAGCGUUCACGUCGCGGCCCCUGUCAGAUUCUGGUGAAUCUGCGAGUACUGCUGU was 0.576.

In the case of GGGGGCCACAGCAGAAGCGUUCACGUCGCGGCCCCUGUCAGAUUCUGGUGAAUCUGCGGAUUCUACUGU, the self-cleavage amounted to 0.895.

Turning to GGGGGCCACAGCAGAAGCGUUCACGUCGCGGCCCCUGUCAGAUUCUGGUGAAUCUGCGAGCUCUGCUGU, the self-cleavage stood at 0.365.

Take GGGGGCCACAGCAGAAGCGUUCACGUCGCGGCCCCUGUCAGAUUCUGGUGAAUCUGCGCAUUGUGCUGU: the self-cleavage was found to be 0.316.

Consider GGGGGCCACAGCAGAAGCGUUCACGUCGCGGCCCCUGUCAGAUUCUGGUGAAUCUGCGCAUUUUGCUGU, for which the self-cleavage was found to be 0.633. As to GGGGGCCACAGCAGAAGCGUUCACGUCGCGGCCCCUGUCAGAUUCUGGUGAAUCUGCGUAUUCUGAUGU, the self-cleavage is 0.503. The value for GGGGGCCACAGCAGAAGCGUUCACGUCGCGGCCCCUGUCAGAUUCUGGUGAAUCUGCGUAUUCUGGUGU was 0.592; that for GGGGGCCACAGCAGAAGCGUUCACGUCGCGGCCCCUGUCAGAUUCUGGUGAAUCUGCGACUUAUGCUGU was 0.405.

GGGGGCCACAGCAGAAGCGUUCACGUCGCGGCCCCUGUCAGAUUCUGGUGAAUCUGCGAUUGCUGCUGU: the self-cleavage was found to be 0.679. The value for GGGGGCCACAGCAGAAGCGUUCACGUCGCGGCCCCUGUCAGAUUCUGGUGAAUCUGCGACUACUGCUGU was 0.396; that for GGGGGCCACAGCAGAAGCGUUCACGUCGCGGCCCCUGUCAGAUUCUGGUGAAUCUGCGACUCCUGCUGU was 0.398. Next, GGGGGCCACAGCAGAAGCGUUCACGUCGCGGCCCCUGUCAGAUUCUGGUGAAUCUGCGCUUUCUGCUGU: 0.378; GGGGGCCACAGCAGAAGCGUUCACGUCGCGGCCCCUGUCAGAUUCUGGUGAAUCUGCGAAAUCGGCUGU: 0.529. Next, GGGGGCCACAGCAGAAGCGUUCACGUCGCGGCCCCUGUCAGAUUCUGGUGAAUCUGCGAAAUCCGCUGU: 0.585. As for GGGGGCCACAGCAGAAGCGUUCACGUCGCGGCCCCUGUCAGAUUCUGGUGAAUCUGCGGAUACUGCUGU, the self-cleavage amounted to 0.918.

On to GGGGGCCACAGCAGAAGCGUUCACGUCGCGGCCCCUGUCAGAUUCUGGUGAAUCUGCGAAAUGUGCUGU, for which the self-cleavage came to 0.516. For the variant GGGGGCCACAGCAGAAGCGUUCACGUCGCGGCCCCUGUCAGAUUCUGGUGAAUCUGCGAGUUCUGCUGA, the self-cleavage was found to be 0.994. The value for GGGGGCCACAGCAGAAGCGUUCACGUCGCGGCCCCUGUCAGAUUCUGGUGAAUCUGCGAGUUCUGCUGC was 1.03; that for GGGGGCCACAGCAGAAGCGUUCACGUCGCGGCCCCUGUCAGAUUCUGGUGAAUCUGCGAUUUCUGCGGU was 0.615; that for GGGGGCCACAGCAGAAGCGUUCACGUCGCGGCCCCUGUCAGAUUCUGGUGAAUCUGCGAGUUCUGCUCU was 0.889.

As to GGGGGCCACAGCAGAAGCGUUCACGUCGCGGCCCCUGUCAGAUUCUGGUGAAUCUGCGAGUUCUGCUAU, the self-cleavage stood at 0.987. Next, GGGGGCCACAGCAGAAGCGUUCACGUCGCGGCCCCUGUCAGAUUCUGGUGAAUCUGCGAAAUCUGUUGU: 0.83.

Take GGGGGCCACAGCAGAAGCGUUCACGUCGCGGCCCCUGUCAGAUUCUGGUGAAUCUGCGAGUUCUGCUGU: the self-cleavage came to 0.954. GGGGGCCACAGCAGAAGCGUUCACGUCGCGGCCCCUGUCAGAUUCUGGUGAAUCUGCGAUUUCUGCUGU: the self-cleavage amounted to 0.526. Next, GGGGGCCACAGCAGAAGCGUUCACGUCGCGGCCCCUGUCAGAUUCUGGUGAAUCUGCGACUUCUGCUGU: 0.359. Next, GGGGGCCACAGCAGAAGCGUUCACGUCGCGGCCCCUGUCAGAUUCUGGUGAAUCUGCGGAAUCUGCUGU: 0.916; GGGGGCCACAGCAGAAGCGUUCACGUCGCGGCCCCUGUCAGAUUCUGGUGAAUCUGCGGAGUCUGCUGU: 0.941.

As to GGGGGCCACAGCAGAAGCGUUCACGUCGCGGCCCCUGUCAGAUUCUGGUGAAUCUGCGAUUUCUGCUUU, the self-cleavage was determined as 0.66. GGGGGCCACAGCAGAAGCGUUCACGUCGCGGCCCCUGUCAGAUUCUGGUGAAUCUGCGAUUUCUGCUCU: the self-cleavage is 0.556.

As for GGGGGCCACAGCAGAAGCGUUCACGUCGCGGCCCCUGUCAGAUUCUGGUGAAUCUGCGAUUUCUGCUAU, the self-cleavage came to 0.637. For GGGGGCCACAGCAGAAGCGUUCACGUCGCGGCCCCUGUCAGAUUCUGGUGAAUCUGCGGAUUCGGCUGU, the self-cleavage was determined as 0.835. Next, GGGGGCCACAGCAGAAGCGUUCACGUCGCGGCCCCUGUCAGAUUCUGGUGAAUCUGCGACUUCUGCUGG: 0.418; GGGGGCCACAGCAGAAGCGUUCACGUCGCGGCCCCUGUCAGAUUCUGGUGAAUCUGCGACUUCUGCUGA: 0.474. GGGGGCCACAGCAGAAGCGUUCACGUCGCGGCCCCUGUCAGAUUCUGGUGAAUCUGCGAGUUCUCCUGU: the self-cleavage amounted to 0.362. As for GGGGGCCACAGCAGAAGCGUUCACGUCGCGGCCCCUGUCAGAUUCUGGUGAAUCUGCGACUUCUACUGU, the self-cleavage was 0.438. The value for GGGGGCCACAGCAGAAGCGUUCACGUCGCGGCCCCUGUCAGAUUCUGGUGAAUCUGCGACUUCUUCUGU was 0.308; that for GGGGGCCACAGCAGAAGCGUUCACGUCGCGGCCCCUGUCAGAUUCUGGUGAAUCUGCGACUUCCGCUGU was 0.452; that for GGGGGCCACAGCAGAAGCGUUCACGUCGCGGCCCCUGUCAGAUUCUGGUGAAUCUGCGAUUUCGGCUGU was 0.333. Next, GGGGGCCACAGCAGAAGCGUUCACGUCGCGGCCCCUGUCAGAUUCUGGUGAAUCUGCGAUUUCAGCUGU: 0.394; GGGGGCCACAGCAGAAGCGUUCACGUCGCGGCCCCUGUCAGAUUCUGGUGAAUCUGCGAUUUCUCCUGU: 0.362. On to GGGGGCCACAGCAGAAGCGUUCACGUCGCGGCCCCUGUCAGAUUCUGGUGAAUCUGCGUAUUAUGCUGU, for which the self-cleavage was found to be 0.377. The value for GGGGGCCACAGCAGAAGCGUUCACGUCGCGGCCCCUGUCAGAUUCUGGUGAAUCUGCGCAUUCCGCUGU was 0.586.

Consider GGGGGCCACAGCAGAAGCGUUCACGUCGCGGCCCCUGUCAGAUUCUGGUGAAUCUGCGCAUUCUGCGGU, for which the self-cleavage came to 0.772. GGGGGCCACAGCAGAAGCGUUCACGUCGCGGCCCCUGUCAGAUUCUGGUGAAUCUGCGACCUCUGCUGU: the self-cleavage turned out to be 0.355. Next, GGGGGCCACAGCAGAAGCGUUCACGUCGCGGCCCCUGUCAGAUUCUGGUGAAUCUGCGACUUCUGAUGU: 0.288; GGGGGCCACAGCAGAAGCGUUCACGUCGCGGCCCCUGUCAGAUUCUGGUGAAUCUGCGCAUUCUACUGU: 0.496; GGGGGCCACAGCAGAAGCGUUCACGUCGCGGCCCCUGUCAGAUUCUGGUGAAUCUGCGCAUUCUUCUGU: 0.342.

For the variant GGGGGCCACAGCAGAAGCGUUCACGUCGCGGCCCCUGUCAGAUUCUGGUGAAUCUGCGCAUUCUGCUCU, the self-cleavage turned out to be 0.909. For GGGGGCCACAGCAGAAGCGUUCACGUCGCGGCCCCUGUCAGAUUCUGGUGAAUCUGCGAAAACUGCUGU, the self-cleavage came to 0.839.

Take GGGGGCCACAGCAGAAGCGUUCACGUCGCGGCCCCUGUCAGAUUCUGGUGAAUCUGCUAAUUCUGCUGC: the self-cleavage stood at 1.06. Next, GGGGGCCACAGCAGAAGCGUUCACGUCGCGGCCCCUGUCAGAUUCUGGUGAAUCUGCUAAUUCUGCUGA: 1.02; GGGGGCCACAGCAGAAGCGUUCACGUCGCGGCCCCUGUCAGAUUCUGGUGAAUCUGCGGAUUUUGCUGU: 1.01; GGGGGCCACAGCAGAAGCGUUCACGUCGCGGCCCCUGUCAGAUUCUGGUGAAUCUGCGAGUUCUGCAGU: 0.944.

For the variant GGGGGCCACAGCAGAAGCGUUCACGUCGCGGCCCCUGUCAGAUUCUGGUGAAUCUGCGAUAUCUGCUGU, the self-cleavage came out at 0.623. The value for GGGGGCCACAGCAGAAGCGUUCACGUCGCGGCCCCUGUCAGAUUCUGGUGAAUCUGCGGAUUCUGCUGC was 1.06; that for GGGGGCCACAGCAGAAGCGUUCACGUCGCGGCCCCUGUCAGAUUCUGGUGAAUCUGCGUAUUCUGCUAU was 0.957. As to GGGGGCCACAGCAGAAGCGUUCACGUCGCGGCCCCUGUCAGAUUCUGGUGAAUCUGCGUAUUCUGCUUU, the self-cleavage turned out to be 0.924. Regarding GGGGGCCACAGCAGAAGCGUUCACGUCGCGGCCCCUGUCAGAUUCUGGUGAAUCUGCGUAUUCUGCUGA, the self-cleavage was 0.901. With GGGGGCCACAGCAGAAGCGUUCACGUCGCGGCCCCUGUCAGAUUCUGGUGAAUCUGCGUAUUCUGCUGG, the self-cleavage turned out to be 0.903. The value for GGGGGCCACAGCAGAAGCGUUCACGUCGCGGCCCCUGUCAGAUUCUGGUGAAUCUGCGAGUUCGGCUGU was 0.493; that for GGGGGCCACAGCAGAAGCGUUCACGUCGCGGCCCCUGUCAGAUUCUGGUGAAUCUGCGAGUUCCGCUGU was 0.491; that for GGGGGCCACAGCAGAAGCGUUCACGUCGCGGCCCCUGUCAGAUUCUGGUGAAUCUGCGAGUUCAGCUGU was 0.493. Next, GGGGGCCACAGCAGAAGCGUUCACGUCGCGGCCCCUGUCAGAUUCUGGUGAAUCUGCGGCUUCUGCUGU: 0.238.

The values are drawn from the RNAGym collection of RNA variant scans (doi:10.7554/elife.80360).
